What was measured:
Experiment in all cases: yeast two-hybrid
[1] = target: T1, tetratricopeptide repeat domain 3 (TPRD) 1058-1189 (human, UniProt P53804 1058-1189)
T1 construct: prey (Gal4 AD-HA fusion)
T1 sequence (looked up): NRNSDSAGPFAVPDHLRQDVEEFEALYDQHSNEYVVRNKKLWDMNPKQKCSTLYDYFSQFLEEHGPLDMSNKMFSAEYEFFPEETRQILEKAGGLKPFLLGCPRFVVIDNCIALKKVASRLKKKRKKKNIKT

[2] = target: T2, intracellular chloride channel protein (CLIC1) 98-210 (human, UniProt O00299 98-210)
T2 construct: range 98-210; prey (Gal4 AD-HA fusion); also called NCC27

[3] = target: T3, intracellular chloride channel protein (CLIC1) 51-210 (human, UniProt O00299 51-210)
T3 construct: range 51-210; prey (Gal4 AD-HA fusion); also called NCC27

[4] = target: T4, golgi autoantigen, golgin subfamily a, 5 (Golgin-84) 609-731 (human, UniProt Q8TBA6 609-731)
T4 construct: prey (Gal4 AD-HA fusion)
T4 sequence (looked up): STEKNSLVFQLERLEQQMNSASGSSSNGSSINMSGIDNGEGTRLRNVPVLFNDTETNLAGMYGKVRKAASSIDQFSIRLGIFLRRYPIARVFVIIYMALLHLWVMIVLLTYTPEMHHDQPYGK

[5] = target: T5, Catenin, alpha 2 (A2-CAT) 55-487 (human, UniProt P26232 55-487)
T5 construct: prey (Gal4 AD-HA fusion)
T5 sequence (looked up): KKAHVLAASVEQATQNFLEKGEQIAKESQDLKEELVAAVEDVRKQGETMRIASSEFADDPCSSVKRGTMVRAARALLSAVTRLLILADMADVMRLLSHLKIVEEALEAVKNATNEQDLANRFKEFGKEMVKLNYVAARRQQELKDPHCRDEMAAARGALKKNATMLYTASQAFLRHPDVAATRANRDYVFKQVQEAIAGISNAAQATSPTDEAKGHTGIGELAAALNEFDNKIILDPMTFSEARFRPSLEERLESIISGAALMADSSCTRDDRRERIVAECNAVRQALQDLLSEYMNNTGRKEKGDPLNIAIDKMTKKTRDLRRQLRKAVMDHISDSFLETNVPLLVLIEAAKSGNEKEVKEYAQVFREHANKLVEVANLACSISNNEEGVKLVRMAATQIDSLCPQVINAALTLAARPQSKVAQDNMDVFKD

[6] = target: T6, Catenin, alpha 2 (A2-CAT) 1-166 (human, UniProt P26232 1-166)
T6 construct: prey (Gal4 AD-HA fusion)
T6 sequence (looked up): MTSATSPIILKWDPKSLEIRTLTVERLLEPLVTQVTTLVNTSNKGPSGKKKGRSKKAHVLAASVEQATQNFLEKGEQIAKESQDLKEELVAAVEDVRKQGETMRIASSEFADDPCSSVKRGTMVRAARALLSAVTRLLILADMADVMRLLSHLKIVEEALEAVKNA

[7] = target: T7, Charcot-Leyden crystal protein; periplakin (PPL) 1548-1756 (human, UniProt O60437 1548-1756)
T7 construct: prey (Gal4 AD-HA fusion)
T7 sequence (looked up): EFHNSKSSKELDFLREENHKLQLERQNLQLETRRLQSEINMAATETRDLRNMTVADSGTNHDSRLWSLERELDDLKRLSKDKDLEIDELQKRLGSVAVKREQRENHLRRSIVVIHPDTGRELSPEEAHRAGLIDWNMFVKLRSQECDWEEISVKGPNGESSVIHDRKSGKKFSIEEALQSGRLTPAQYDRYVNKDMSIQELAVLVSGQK

[8] = target: T8, Chromosome-associated polypeptide HCAP (HCAP) 119-353 (human, UniProt Q9UQE7 119-353)
T8 construct: prey (Gal4 AD-HA fusion)

PIBF1 392-758 = target: T9, PIBF1 392-758 (human, UniProt Q8WXW3 392-757)
T9 construct: prey (Gal4 AD-HA fusion)
T9 sequence (looked up): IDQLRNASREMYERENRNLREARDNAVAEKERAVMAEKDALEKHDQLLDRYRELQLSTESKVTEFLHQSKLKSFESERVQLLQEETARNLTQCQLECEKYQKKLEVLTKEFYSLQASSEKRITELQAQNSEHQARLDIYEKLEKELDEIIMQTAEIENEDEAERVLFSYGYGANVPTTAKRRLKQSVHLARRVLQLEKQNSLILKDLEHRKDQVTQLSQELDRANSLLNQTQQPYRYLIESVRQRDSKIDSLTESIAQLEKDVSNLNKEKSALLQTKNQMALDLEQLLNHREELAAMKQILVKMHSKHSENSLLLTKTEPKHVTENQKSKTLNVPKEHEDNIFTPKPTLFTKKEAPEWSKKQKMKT

VPS28 protein 10-221 = target: T10, VPS28 protein 10-221 (human, UniProt Q9UK41 10-221)
T10 construct: prey (Gal4 AD-HA fusion); also called vacuolar protein sorting 28
T10 sequence (looked up): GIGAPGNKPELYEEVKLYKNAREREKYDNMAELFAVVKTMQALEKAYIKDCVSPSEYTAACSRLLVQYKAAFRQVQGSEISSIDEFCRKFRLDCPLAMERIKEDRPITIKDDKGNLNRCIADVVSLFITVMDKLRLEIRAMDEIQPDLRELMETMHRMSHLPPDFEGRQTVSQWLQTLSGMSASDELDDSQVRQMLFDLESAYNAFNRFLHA

[9] = target: T11, Protein kinase C and casein kinase substrate (PACSIN2) 174-367 (human, UniProt Q9UNF0 174-367)
T11 construct: prey (Gal4 AD-HA fusion)
T11 sequence (looked up): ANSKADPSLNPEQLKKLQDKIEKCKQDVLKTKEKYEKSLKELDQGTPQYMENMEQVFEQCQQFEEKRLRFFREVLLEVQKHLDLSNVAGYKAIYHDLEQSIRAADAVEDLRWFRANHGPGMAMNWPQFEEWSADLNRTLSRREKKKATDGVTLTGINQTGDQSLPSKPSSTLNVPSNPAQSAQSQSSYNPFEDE

VPS28 protein 9-211 = target: T12, VPS28 protein 9-211 (human, UniProt Q9UK41 9-211)
T12 construct: prey (Gal4 AD-HA fusion); also called vacuolar protein sorting 28
T12 sequence (looked up): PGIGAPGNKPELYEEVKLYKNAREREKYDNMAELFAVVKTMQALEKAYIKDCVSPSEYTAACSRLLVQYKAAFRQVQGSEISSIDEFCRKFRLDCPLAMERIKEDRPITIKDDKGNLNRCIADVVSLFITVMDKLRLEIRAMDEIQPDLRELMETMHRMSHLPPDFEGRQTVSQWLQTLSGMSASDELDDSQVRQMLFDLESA

[10] = target: T13, Golgi autoantigen (Golgin-84) 198-501 (human, UniProt Q8TBA6 198-501)
T13 construct: prey (Gal4 AD-HA fusion)
T13 sequence (looked up): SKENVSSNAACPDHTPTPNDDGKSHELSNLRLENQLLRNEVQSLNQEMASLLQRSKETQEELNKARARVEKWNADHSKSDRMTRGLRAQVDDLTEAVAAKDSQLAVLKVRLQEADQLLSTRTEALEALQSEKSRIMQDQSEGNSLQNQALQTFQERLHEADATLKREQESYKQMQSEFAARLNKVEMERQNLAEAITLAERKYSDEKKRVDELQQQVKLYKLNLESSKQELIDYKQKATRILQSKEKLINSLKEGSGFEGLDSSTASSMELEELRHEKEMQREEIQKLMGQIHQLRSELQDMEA

[11] = target: T14, Cytoplasmic linker 2 (CYLN2) 607-947 (human, UniProt Q9UDT6 607-947)
T14 construct: prey (Gal4 AD-HA fusion)
T14 sequence (looked up): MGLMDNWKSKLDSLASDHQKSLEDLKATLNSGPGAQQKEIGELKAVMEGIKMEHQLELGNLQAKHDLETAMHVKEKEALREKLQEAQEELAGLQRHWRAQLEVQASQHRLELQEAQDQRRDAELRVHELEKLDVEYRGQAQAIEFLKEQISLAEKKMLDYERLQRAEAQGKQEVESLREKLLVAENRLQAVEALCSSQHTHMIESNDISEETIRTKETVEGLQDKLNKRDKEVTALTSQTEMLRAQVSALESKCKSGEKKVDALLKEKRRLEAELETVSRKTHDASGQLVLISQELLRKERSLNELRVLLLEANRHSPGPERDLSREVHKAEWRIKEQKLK

[12] = target: T15, Apolipoprotein A-I (APOA1) 106-267 (human, UniProt P02647 106-267)
T15 construct: bait (Gal4 DBD fusion)

[13] = target: T16, upstream of N-ras, alt. transcript (798) (UNR) 110-528 (human, UniProt O75534 110-528)
T16 construct: prey (Gal4 AD-HA fusion)
T16 sequence (looked up): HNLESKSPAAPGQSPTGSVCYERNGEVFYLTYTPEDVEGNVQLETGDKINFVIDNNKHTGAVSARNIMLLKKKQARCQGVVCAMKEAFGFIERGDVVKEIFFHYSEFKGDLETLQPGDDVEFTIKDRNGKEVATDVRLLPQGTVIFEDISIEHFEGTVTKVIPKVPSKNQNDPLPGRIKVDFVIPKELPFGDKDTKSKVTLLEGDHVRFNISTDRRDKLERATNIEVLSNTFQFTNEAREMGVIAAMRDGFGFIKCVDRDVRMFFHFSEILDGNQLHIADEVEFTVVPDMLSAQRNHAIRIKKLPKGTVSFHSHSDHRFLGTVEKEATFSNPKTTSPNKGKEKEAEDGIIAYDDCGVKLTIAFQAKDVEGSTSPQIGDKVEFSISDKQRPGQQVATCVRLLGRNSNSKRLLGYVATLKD

T15 sequence (P02647 106-267 limits assumed, form in doubt): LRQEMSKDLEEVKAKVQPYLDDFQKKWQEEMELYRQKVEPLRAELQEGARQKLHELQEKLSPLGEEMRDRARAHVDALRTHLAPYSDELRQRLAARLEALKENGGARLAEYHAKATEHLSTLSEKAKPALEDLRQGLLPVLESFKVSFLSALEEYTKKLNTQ
T8 sequence (Q9UQE7 119-353 limits assumed): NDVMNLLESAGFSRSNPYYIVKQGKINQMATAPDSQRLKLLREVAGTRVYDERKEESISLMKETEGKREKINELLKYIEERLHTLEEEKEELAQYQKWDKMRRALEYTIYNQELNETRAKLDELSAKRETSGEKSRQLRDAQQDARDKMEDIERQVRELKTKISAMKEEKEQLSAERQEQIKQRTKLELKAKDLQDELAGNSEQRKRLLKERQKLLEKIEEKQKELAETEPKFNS

B1: v-akt murine thymoma viral oncogene homolog 2 (AKT2) 1-108 (enzyme, human, UniProt P31751 1-108, looked up)
chain: MNEVSVIKEGWLHKRGEYIKTWRPRYFLLKSDGSFIGYKERPEAPDQTLPPLNNFSVAECQLMKTERPRPNTFVIRCLQWTTVIERTFHVDSPDEREEWMRAIQMVAN
notes: bait (Gal4 DBD fusion)
B1: binds [1]; binds [2]; binds [3].

B2: v-akt murine thymoma viral oncogene homolog 1 (AKT1) 1-118 (enzyme, human, UniProt P31749 1-118, looked up)
chain: MSDVAIVKEGWLHKRGEYIKTWRPRYFLLKNDGTFIGYKERPQDVDQREAPLNNFSVAQCQLMKTERPRPNTFIIRCLQWTTVIERTFHVETPEEREEWTTAIQTVADGLKKQEEEEM
notes: bait (Gal4 DBD fusion)
B2: binds [4].

B3: Survivin (BIRC5) 52-143 (other, human, UniProt O15392 52-142, looked up)
chain: PDLAQCFFCFKELEGWEPDDDPIEEHKKHSSGCAFLSVKKQFEELTLGEFLKLDRERAKNKIAKETNNKKKEFEETAKKVRRAIEQLAAMD
notes: range 52-143; bait (Gal4 DBD fusion); also called API4
B3: binds [5]; binds [6].

B4: v-akt murine thymoma viral oncogene homolog 1 (AKT1) 1-109 (enzyme, human, UniProt P31749 1-109, looked up)
chain: MSDVAIVKEGWLHKRGEYIKTWRPRYFLLKNDGTFIGYKERPQDVDQREAPLNNFSVAQCQLMKTERPRPNTFIIRCLQWTTVIERTFHVETPEEREEWTTAIQTVADG
notes: bait (Gal4 DBD fusion)
B4: binds [7].

B5: Tumor Suppressor (TSG101) 264-391 (other, human, UniProt Q99816 264-390, looked up)
chain: KKGHQKLEEMVTRLDQEVAEVDKNIELLKKKDEELSSALEKMENQSENNDIDEVIIPTAPLYKQILNLYAEENAIEDTIFYLGEALRRGVIDLDVFLKHVRLLSRKQFQLRALMQKARKTAGLSDLY
notes: range 264-391; bait (Gal4 DBD fusion)
B5: binds [8].

B6: Tumor Suppressor (TSG101) 12-326 (other, human, UniProt Q99816 12-326, looked up)
chain: VSKYKYRDLTVRETVNVITLYKDLKPVLDSYVFNDGSSRELMNLTGTIPVPYRGNTYNIPICLWLLDTYPYNPPICFVKPTSSMTIKTGKHVDANGKIYLPYLHEWKHPQSDLLGLIQVMIVVFGDEPPVFSRPISASYPPYQATGPPNTSYMPGMPGGISPYPSGYPPNPSGYPGCPYPPGGPYPATTSSQYPSQPPVTTVGPSRDGTISEDTIRASLISAVSDKLRWRMKEEMDRAQAELNALKRTEEDLKKGHQKLEEMVTRLDQEVAEVDKNIELLKKKDEELSSALEKMENQSENNDIDEVIIPTAPLYK
notes: bait (Gal4 DBD fusion)
B6: binds (PIBF1 392-758).

B7: Tumor Suppressor (TSG101) 265-391 (other, human, UniProt Q99816 265-390, looked up)
chain: KGHQKLEEMVTRLDQEVAEVDKNIELLKKKDEELSSALEKMENQSENNDIDEVIIPTAPLYKQILNLYAEENAIEDTIFYLGEALRRGVIDLDVFLKHVRLLSRKQFQLRALMQKARKTAGLSDLY
notes: range 265-391; bait (Gal4 DBD fusion); also called TSG101 265-390
B7: binds (VPS28 protein 10-221); binds [9].

B8: Tumor Suppressor (TSG101) 231-391 (other, human, UniProt Q99816 231-390, looked up)
chain: ISAVSDKLRWRMKEEMDRAQAELNALKRTEEDLKKGHQKLEEMVTRLDQEVAEVDKNIELLKKKDEELSSALEKMENQSENNDIDEVIIPTAPLYKQILNLYAEENAIEDTIFYLGEALRRGVIDLDVFLKHVRLLSRKQFQLRALMQKARKTAGLSDLY
notes: bait (Gal4 DBD fusion)
B8: binds (VPS28 protein 9-211); binds [10]; binds [11].

B9: syntaxin 2 (STX2) 156-261 (other, human, UniProt P32856 156-261, looked up)
chain: GRTTTDDELEEMLESGKPSIFTSDIISDSQITRQALNEIESRHKDIMKLETSIRELHEMFMDMAMFVETQGEMINNIERNVMNATDYVEHAKEETKKAIKYQSKAR
B9: binds [12].

B10: ribosomal protein S6 kinase, 90 kDa, polypeptide 1 (p90RSK) 418-467 (enzyme, human, UniProt Q15418 418-467, looked up)
chain: YVVKETIGVGSYSECKRCVHKATNMEYAVKVIDKSKRDPSEEIEILLRYG
notes: range 418-467; bait (Gal4 DBD fusion); also called HU1
B10: binds [13].

Source: US20050222029A1 (MYRIAD GENETICS, published 2005)
